{"source": "the RNAGym collection of RNA variant scans (doi:10.7554/elife.80360)", "parents": {"B1": {"name": "Hairpin Ribozyme (parent)", "chain": "GUCCUCUUUCACGUGCGCGUGAAAGAGAGAAGUGAACCAGAGAAACACACGUUGUGGUAUAUUACCUGGUA"}}}
{"variants_of": "B1", "test": "self-cleavage, relative activity (ratio to wild type); higher = more cleavage; co-transcriptional"}
{"variant": "U2G G42C", "self-cleavage": 0.252}
{"variant": "C3A U53G", "self-cleavage": 0.613}
{"variant": "U2C A41G", "self-cleavage": 0.158}
{"variant": "C3A C10U", "self-cleavage": 0.595}
{"variant": "U2G U14A", "self-cleavage": 0.216}
{"variant": "U2G C37G", "self-cleavage": 0.0975}
{"variant": "U2C A28C", "self-cleavage": 0.117}
{"variant": "U2C A28G", "self-cleavage": 0}
{"variant": "C3A G17U", "self-cleavage": 0.571}
{"variant": "C3A A61U", "self-cleavage": 0.199}
{"variant": "U2C G25C", "self-cleavage": 0.118}
{"variant": "G1U G15A", "self-cleavage": 0.171}
{"variant": "U2G U60A", "self-cleavage": 0.402}
{"variant": "U2C C66U", "self-cleavage": 0.0916}
{"variant": "U2C U58G", "self-cleavage": 0.148}
{"variant": "U2G A49G", "self-cleavage": 0.241}
{"variant": "U2G A49C", "self-cleavage": 0.0246}
{"variant": "U2A G32U", "self-cleavage": 0.155}
{"variant": "U2G A30U", "self-cleavage": 0.117}
{"variant": "U2G A30C", "self-cleavage": 0.108}
{"variant": "U2C A64C", "self-cleavage": 0.0771}
{"variant": "U2C A64U", "self-cleavage": 0.107}
{"variant": "U2A G15U", "self-cleavage": 0.289}
{"variant": "U2C G54U", "self-cleavage": 0.193}
{"variant": "G1U U58A", "self-cleavage": 0.0365}
{"variant": "G1U U55A", "self-cleavage": 0.224}
{"variant": "G1U U55G", "self-cleavage": 0.104}
{"variant": "C3A G51U", "self-cleavage": 0.792}
{"variant": "U2A A24U", "self-cleavage": 0.29}
{"variant": "U2A A24G", "self-cleavage": 0.286}
{"variant": "U2C G40A", "self-cleavage": 0.192}
{"variant": "U2C G40C", "self-cleavage": 0.0737}
{"variant": "U2A C3U", "self-cleavage": 0.288}
{"variant": "G1U C10G", "self-cleavage": 0.231}
{"variant": "U2G C48G", "self-cleavage": 0.116}
{"variant": "U2G C48A", "self-cleavage": 0.213}
{"variant": "U2A G56A", "self-cleavage": 0.173}
{"variant": "U2A G56C", "self-cleavage": 0.0929}
{"variant": "U2A A43U", "self-cleavage": 0.0943}
{"variant": "U2A U14C", "self-cleavage": 0.265}
{"variant": "U2G A71C", "self-cleavage": 0.77}
{"variant": "U2C A49G", "self-cleavage": 0.0598}
{"variant": "U2C A49C", "self-cleavage": 0.189}
{"variant": "U2G A41U", "self-cleavage": 0.71}
{"variant": "G1U U5A", "self-cleavage": 0.163}
{"variant": "U2A G57C", "self-cleavage": 0.0768}
{"variant": "U2C C12G", "self-cleavage": 0.0835}
{"variant": "U2C C12A", "self-cleavage": 0.205}
{"variant": "U2C C12U", "self-cleavage": 0.226}
{"variant": "U2G A59G", "self-cleavage": 0.225}
{"variant": "G1U C65G", "self-cleavage": 0.236}
{"variant": "G1U C65U", "self-cleavage": 0.0631}
{"variant": "U2C G19A", "self-cleavage": 0.149}
{"variant": "U2C G19C", "self-cleavage": 0.128}
{"variant": "C3A U14G", "self-cleavage": 0.623}
{"variant": "U2C U67G", "self-cleavage": 0.0822}
{"variant": "U2A U55G", "self-cleavage": 0.109}
{"variant": "U2G A28C", "self-cleavage": 0.384}
{"variant": "C3A A64C", "self-cleavage": 0.197}
{"variant": "C3A A64G", "self-cleavage": 0.54}
{"variant": "U2C C38U", "self-cleavage": 0.147}
{"variant": "U2C C38A", "self-cleavage": 0.0742}
{"variant": "C3A C4G", "self-cleavage": 0.359}
{"variant": "C3A C4U", "self-cleavage": 0.42}
{"variant": "C3A G40A", "self-cleavage": 0.23}
{"variant": "U2C A44U", "self-cleavage": 0.201}
{"variant": "U2C G69C", "self-cleavage": 0.0747}
{"variant": "U2C G69A", "self-cleavage": 0.0698}
{"variant": "U2C G51C", "self-cleavage": 0.506}
{"variant": "U2C G51A", "self-cleavage": 0.219}
{"variant": "U2A U52A", "self-cleavage": 0.285}
{"variant": "U2A U52C", "self-cleavage": 0.169}
{"variant": "G1U U33A", "self-cleavage": 0.123}
{"variant": "G1U U33G", "self-cleavage": 0.0782}
{"variant": "C3A C50G", "self-cleavage": 0.199}
{"variant": "C3A U20A", "self-cleavage": 0.582}
{"variant": "C3A U20G", "self-cleavage": 0.607}
{"variant": "C3A C37A", "self-cleavage": 0.217}
{"variant": "C3A A49C", "self-cleavage": 0.164}
{"variant": "U2G G15A", "self-cleavage": 0.55}
{"variant": "G1U C46A", "self-cleavage": 0.106}
{"variant": "U2C G68C", "self-cleavage": 0.187}
{"variant": "U2C G68A", "self-cleavage": 0.0299}
{"variant": "U2A U8G", "self-cleavage": 0.201}
{"variant": "U2A U8C", "self-cleavage": 0.162}
{"variant": "U2A U8A", "self-cleavage": 0.279}
{"variant": "U2C C18U", "self-cleavage": 0.162}
{"variant": "U2A C46U", "self-cleavage": 0.0639}
{"variant": "U2G C38A", "self-cleavage": 0.143}
{"variant": "U2G C38G", "self-cleavage": 0.172}
{"variant": "U2A G51C", "self-cleavage": 0.125}
{"variant": "U2A G51A", "self-cleavage": 0.233}
{"variant": "U2A U53G", "self-cleavage": 0.134}
{"variant": "C3A A26C", "self-cleavage": 0.402}
{"variant": "C3A A26G", "self-cleavage": 0.736}
{"variant": "U2A U67A", "self-cleavage": 0.0652}
{"variant": "G1U C3A", "self-cleavage": 0.161}
{"variant": "G1U C3G", "self-cleavage": 0.122}
{"variant": "U2G G29C", "self-cleavage": 0.122}
{"variant": "G1U G21A", "self-cleavage": 0.129}
{"variant": "U2A A11G", "self-cleavage": 0.344}
{"variant": "C3A A24U", "self-cleavage": 0.703}
{"variant": "C3A A47G", "self-cleavage": 0.191}
{"variant": "U2A U20C", "self-cleavage": 0.336}
{"variant": "U2A U20A", "self-cleavage": 0.198}
{"variant": "C3A", "self-cleavage": 0.714}
{"variant": "C3A A45U", "self-cleavage": 0.164}
{"variant": "C3A A45G", "self-cleavage": 0.197}
{"variant": "C3A A45C", "self-cleavage": 0.157}
{"variant": "U2A A49C", "self-cleavage": 0.149}
{"variant": "U2A U63C", "self-cleavage": 0.0787}
{"variant": "U2A U63A", "self-cleavage": 0.0695}
{"variant": "U2A A31C", "self-cleavage": 0.13}
{"variant": "U2C U20C", "self-cleavage": 0.273}
{"variant": "U2C G34A", "self-cleavage": 0.217}
{"variant": "G1U G34A", "self-cleavage": 0.143}
{"variant": "G1U G34U", "self-cleavage": 0.19}
{"variant": "C3A G25C", "self-cleavage": 0.202}
{"variant": "U2G G13C", "self-cleavage": 0.29}
{"variant": "U2G G13U", "self-cleavage": 0.246}
{"variant": "U2G C6U", "self-cleavage": 0.303}
{"variant": "U2G C6G", "self-cleavage": 0.155}
{"variant": "U2G C6A", "self-cleavage": 0.196}
{"variant": "U2C U14A", "self-cleavage": 0.0424}
{"variant": "C3A A31G", "self-cleavage": 0.425}
{"variant": "U2C A11C", "self-cleavage": 0.229}
{"variant": "U2C U33A", "self-cleavage": 0.0916}
{"variant": "U2A U9A", "self-cleavage": 0.201}
{"variant": "U2G C65G", "self-cleavage": 0.0852}
{"variant": "G1U G40C", "self-cleavage": 0.055}
{"variant": "C3A G34C", "self-cleavage": 0.984}
{"variant": "U2G G21U", "self-cleavage": 0.236}
{"variant": "U2G G21C", "self-cleavage": 0.364}
{"variant": "U2A G69C", "self-cleavage": 0.111}
{"variant": "G1U G69A", "self-cleavage": 0.0764}
{"variant": "U2G C10U", "self-cleavage": 0.269}
{"variant": "U2G C10G", "self-cleavage": 0.287}
{"variant": "U2A G13C", "self-cleavage": 0.158}
{"variant": "U2A G13A", "self-cleavage": 0.26}
{"variant": "U2A C48A", "self-cleavage": 0.159}
{"variant": "G1U G51C", "self-cleavage": 0.175}
{"variant": "G1U G51A", "self-cleavage": 0.205}
{"variant": "C3A A28C", "self-cleavage": 0.648}
{"variant": "C3A A28G", "self-cleavage": 0.453}
{"variant": "G1U U14C", "self-cleavage": 0.128}
{"variant": "G1U U14A", "self-cleavage": 0.041}
{"variant": "G1U U53A", "self-cleavage": 0.0738}
{"variant": "C3A A44U", "self-cleavage": 0.148}
{"variant": "C3A A44G", "self-cleavage": 0.126}
{"variant": "C3A A41U", "self-cleavage": 1.25}
{"variant": "C3A A41C", "self-cleavage": 1.07}
{"variant": "U2G C18G", "self-cleavage": 0.373}
{"variant": "U2G C18A", "self-cleavage": 0.379}
{"variant": "U2C A47G", "self-cleavage": 0}
{"variant": "U2C A47U", "self-cleavage": 0.203}
{"variant": "U2A G17U", "self-cleavage": 0.22}
{"variant": "U2A G40A", "self-cleavage": 0.0928}
{"variant": "U2A G40C", "self-cleavage": 0.12}
{"variant": "U2C G27U", "self-cleavage": 0.0539}
{"variant": "U2C G27A", "self-cleavage": 0.129}
{"variant": "U2C A26U", "self-cleavage": 0.13}
{"variant": "U2C G56A", "self-cleavage": 0.177}
{"variant": "U2G A22U", "self-cleavage": 0.259}
{"variant": "G1U C6U", "self-cleavage": 0.139}
{"variant": "U2G G56U", "self-cleavage": 0.0924}
{"variant": "U2G G56C", "self-cleavage": 0.0624}
{"variant": "G1U G19A", "self-cleavage": 0.208}
